Experimental data as given in patent US9120851B2, “Human antibodies to human angiopoietin-like protein 4” (Regeneron Pharmaceuticals, Inc., priority 2009, dated 2015).

T1: hANGPTL4-His (Homo sapiens, UniProt Q9BY76)
T1 construct: purchased R&D Systems 4487-AN
T1 sequence (Q9BY76 26-406): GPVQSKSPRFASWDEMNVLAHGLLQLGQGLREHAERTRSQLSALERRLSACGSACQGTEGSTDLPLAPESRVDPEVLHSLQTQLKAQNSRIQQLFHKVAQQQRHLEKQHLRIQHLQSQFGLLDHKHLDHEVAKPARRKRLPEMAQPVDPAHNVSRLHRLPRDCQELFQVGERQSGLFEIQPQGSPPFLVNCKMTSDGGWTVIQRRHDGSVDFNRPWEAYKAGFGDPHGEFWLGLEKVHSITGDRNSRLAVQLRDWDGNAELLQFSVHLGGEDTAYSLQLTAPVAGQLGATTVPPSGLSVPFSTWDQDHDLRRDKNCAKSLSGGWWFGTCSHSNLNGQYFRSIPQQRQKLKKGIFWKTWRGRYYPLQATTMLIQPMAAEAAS


What was measured:
hANGPTL4-His = molecular target: T1, hANGPTL4-His; assay: BIACORE cross-reactivity, amine coupled hANGPTL4-His; assay type: binding; details: for Specific RU, hANGPTL4-His: chip surface 6247 RU, mAb injected at 3.125-50 μg/mL
Experimental: Possible cross-reactivity of the anti-hANGPTL4 antibodies to related proteins, i.e., hANGPTL3, human angiopoietin-like protein 5 (hANGPTL5) and mouse ANGPTL4 (mANGPTL4), was tested for the selected antibodies, i.e., H1H268P and H1H284P, using the BIACORE™ system. Briefly, anti-hANGPTL4 antibodies as well as negative controls, i.e., two monoclonal antibodies (Control a and Control b) that are non-binders to any ANGPTL proteins, were injected at 3.125 μg/mL-50 μg/mL over amine coupled chip surfaces of hANGPTL3-His (R&D Systems, cat #3829-AN) at 5228 RU, hANGPTL4-His (R&D Systems, cat #4487-AN) at 6247 RU, hANGPTL5-His (Abnova Corp., cat #H00253935-P01) at 5265 RU, and mANGPTL4-His [R26-S410 of mANGPTL4 (SEQ ID NO: 478) fused with an AS linker to a C-terminal 6-histidine tag] at 5233 RU, respectively. A polyclonal antibody specific for hANGPTL3 (R&D System, cat #BAF3485) was also tested.

humanized ANGPTL4 mice = assay: Serum TG levels in humanized ANGPTL4 mice; assay type: in vivo, mouse; details: for Serum TG: mean±SEM
Experimental: The effect of anti-hANGPTL4 antibodies H1H268P and H1H284P on serum TG levels was determined in mice expressing the ANGPTL4 protein containing the human N-terminal coil-coil region (“humanized ANGPTL4 mice”). The humanized ANGPTL4 mouse was made by replacing first three exons of the mouse Angptl4 gene (the N terminal coil-coil region) with the corresponding human N-terminal coil-coil ANGPLT4 sequence in C57BL6/129 (F1H4) embryonic stem cells. After germ line transmission was established, heterozygous mice (ANGPTL4hum/+) were bred together to generate homozygous mice [ANGPTL4hum/hum or hANGPTL4(+/+)] on a C57BL6 background. Humanized ANGPTL4 mice were pre-bled 7 days before (day −7) the experiment and put into groups of six mice each for each antibody tested. Antibodies (H1H268P, H1H284P and isotype-matched (hIgG1) control with no known cross-reactivity to mouse antigens) were administered at 10 mg/kg dose by subcutaneous injection. Mice were bled after 4 hours of fasting at days 1, 4, 7 and 11 after antibody injection; and serum TG levels were determined by ADVIA® 1800 Chemistry System (Siemens). Average TG levels were calculated for each time point for each antibody.
The effect of anti-hANGPTL4 antibodies, H4H268P2 and H4H284P, on serum TG levels was determined in humanized ANGPTL4 mice. Humanized ANGPTL4 mice were pre-bled 7 days before the experiment and put into groups of six mice each for each antibody tested. Antibodies (H4H268P2, H4H284P and isotype-matched (hIgG4) control with no known cross-reactivity to mouse antigens) were administered at 10 mg/kg dose by subcutaneous injection. Mice were bled after 4 hours of fasting at days 1, 4, 7 and 11 after antibody injection; and TG levels were determined in the serum by ADVIA® 1800 Chemistry System (Siemens). Average TG levels were calculated for each time point for each antibody.

hANGPTL4(26-148)-mFc = molecular target: T2, hANGPTL4(26-148)-mFc (Homo sapiens, UniProt Q9BY76); assay: BIACORE, full mAb or Fab over anti-mFc captured hANGPTL4(26-148)-mFc; assay type: binding
T2 construct: amino acid residues 26-148 of human ANGPTL4 fused in-line to mouse IgG2a (hANGPTL4-mFc)
Experimental: Briefly, various concentrations (3.125 nM-100 nM) of anti-hANGPTL4 antibodies (i.e., H1H268 Fab, entire H1H268 mAb, H1H284 Fab, and entire H1H284 mAb) were injected over a low density anti-mFc captured hANGPTL4(26-148)-mFc (˜68±4 RU) surface, or the surface of amino-coupled hANGPTL4(26-406)-His (R&D Systems) (450 RU) or amino-coupled cynomolgus monkey N-terminal region (amino acid residues 1-130 of SEQ ID NO:490) expressed with an C-terminal hexa-histidine tag (MfANGPTL4(1-130)-His) (1,028 RU). Kinetic analysis was performed to measure ka and kd, and KD values and half-life of antigen/antibody complex dissociation were calculated. The results are shown in Table 4 (H1H268P) and Table 5 (H1H284P).

[1] = day 1 after injection, 10 mg/kg s.c., 4 h fasting
[2] = day 4 after injection, 10 mg/kg s.c., 4 h fasting
[3] = day 7 after injection, 10 mg/kg s.c., 4 h fasting
[4] = day 11 after injection, 10 mg/kg s.c., 4 h fasting

T2 sequence (Q9BY76 with tags, fused parts or gaps): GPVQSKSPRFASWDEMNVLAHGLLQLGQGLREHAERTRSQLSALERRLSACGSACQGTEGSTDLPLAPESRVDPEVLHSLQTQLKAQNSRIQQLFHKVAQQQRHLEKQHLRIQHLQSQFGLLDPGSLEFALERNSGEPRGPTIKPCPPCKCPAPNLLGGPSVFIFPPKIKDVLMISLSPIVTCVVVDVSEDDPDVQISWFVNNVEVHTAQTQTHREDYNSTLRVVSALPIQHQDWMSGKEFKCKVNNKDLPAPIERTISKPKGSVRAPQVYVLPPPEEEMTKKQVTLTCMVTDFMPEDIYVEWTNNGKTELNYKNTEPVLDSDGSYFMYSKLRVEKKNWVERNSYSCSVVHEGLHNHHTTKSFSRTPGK

binding to hANGPTL4-His, in words (hANGPTL4-His)	Specific RU, hANGPTL4-His (hANGPTL4-His)	ka (hANGPTL4(26-148)-mFc; pH 5.75, 25° C.)	kd (hANGPTL4(26-148)-mFc; pH 5.75, 25° C.)	ka (hANGPTL4(26-148)-mFc; pH 7.2, 25° C.)	kd (hANGPTL4(26-148)-mFc; pH 7.2, 25° C.)	Molecule	reduction in circulating TG compared to isotype-matched control antibody (humanized ANGPTL4 mice; 4-11 days after administration, 10 mg/kg s.c.)	Serum TG (humanized ANGPTL4 mice; [1])	Serum TG (humanized ANGPTL4 mice; [2])	Serum TG (humanized ANGPTL4 mice; [3])	Serum TG (humanized ANGPTL4 mice; day −7 (pre-bleed))	reduction in circulating TG compared to isotype-matched control antibody, in words (humanized ANGPTL4 mice; day 1, 10 mg/kg s.c.)	reduction in circulating TG compared to isotype-matched control antibody, in words (humanized ANGPTL4 mice; day 4, 10 mg/kg s.c.)	Serum TG (humanized ANGPTL4 mice; [4])	TG levels relative to control, in words (humanized ANGPTL4 mice; day 11 after injection, 10 mg/kg s.c.)
bound specifically	768 RU	628000 M⁻¹ s⁻¹	0.000138 s⁻¹	153000 M⁻¹ s⁻¹	9.59e-05 s⁻¹	H1H268P: anti-hANGPTL4 antibody, hIgG1 isotype, HCVR/LCVR SEQ ID NOs 42/44 (antibody, V domains shown) VH: QVQLQESGAGLLKPSETLSLTCTVYGGSFSIHHWTWIRHPPGKGLEWIGEINHRGSTNYNPSLKSRVTISIDTSKNQFSLKLSAVTAADTAVYYCARGLRFLDWLSSYFDYWGQGTLVTVSS VL: DIQMTQSPSSLSASVGDRVTITCRASQGISDYLAWYQQKPGKVPNLLIYAASALQSGVPSRFSGSGSGTDFTLTISSLQPEDVATYYCQNYNTAPLTFGGGTKVEIK	25-30%	129.8 ± 5.6 mg/dL	73.3 ± 8.9 mg/dL	83 ± 14 mg/dL	112 ± 9.3 mg/dL	–	–	–	–
–	–	–	–	–	–	H4H268P2: IgG4 version of H1H268P with a single amino acid substitution in framework region 1, HCVR/LCVR SEQ ID NOs 487/44 (antibody, V domains shown, IgG4 constant region) VH: QVQLQQSGAGLLKPSETLSLTCTVYGGSFSIHHWTWIRHPPGKGLEWIGEINHRGSTNYNPSLKSRVTISIDTSKNQFSLKLSAVTAADTAVYYCARGLRFLDWLSSYFDYWGQGTLVTVSS VL: DIQMTQSPSSLSASVGDRVTITCRASQGISDYLAWYQQKPGKVPNLLIYAASALQSGVPSRFSGSGSGTDFTLTISSLQPEDVATYYCQNYNTAPLTFGGGTKVEIK	–	81 ± 6.8 mg/dL	67 ± 5.3 mg/dL	56 ± 7.1 mg/dL	101 ± 9.3 mg/dL	significant reduction	significant reduction	87 ± 8.7 mg/dL	–
bound specifically	1351 RU	1.09e+06 M⁻¹ s⁻¹	8.91e-05 s⁻¹	274000 M⁻¹ s⁻¹	5.36e-05 s⁻¹	H1H284P: anti-hANGPTL4 antibody, hIgG1 isotype, HCVR/LCVR SEQ ID NOs 90/92 (antibody, V domains shown) VH: QVQLVESGGGVVQPGRSLRLSCAASGFTFSSYGMHWVRQAPGKGLEWMAVISFDGGNKNNADSVKGRFTISRDNSKNTLYLQMNSLRAEDTAVYYCAKEGDRSGHPYFYYYGLDVWGQGTTVTVS VL: DIQLTQSPSFLSASVGDRVTITCWASQGISSYLAWYQQKPGKAPKLLIYAASTLQSGVPSRFSGSGSETEFTLTISSLQPEDFATYYCQQLHSYPLTFGGGTKVEIK	–	125 ± 18 mg/dL	67 ± 9.8 mg/dL	91 ± 7.2 mg/dL	113 ± 11 mg/dL	–	–	109 ± 11 mg/dL	increased back to control level
